According to FireProtDB (doi:10.1074/jbc.274.53.37533):

Settings: Pseudomonas aeruginosa (strain ATCC 15692 / DSM 22644 / CIP 104116 / JCM 14847 / LMG 12228 / 1C / PRS 101 / PAO1), CD, HCl, whole UniProt chain shown

B1: Cytochrome c-551 wild type, P00099 (protein)
chain: MKPYALLSLLATGTLLAQGAWAEDPEVLFKNKGCVACHAIDTKMVGPAYKDVAAKFAGQAGAEAELAQRIKNGSQGVWGPIPMPPNAVSDDEAQTLAKWVLSQK
For B1, the denaturant m value (pH 5, 25 °C, GdnHCl) was 2.17 kcal/mol/M, the “denaturant midpoint (higher = more stable)” value (pH 5, 25 °C, GdnHCl) was 2.25 M and the Tm (pH 5, Thermal) was 50.4 °C. For the same protein, the “unfolding enthalpy (van 't Hoff)” value (pH 5, Thermal) was 37.6 kcal/mol.
